In assay [1] the target is Holo-transferrin (Homo sapiens (Human)) (UniProt P02787). Put plainly: SPR, Biacore T200, multi-cycle, Tbp-B at 6.17-500 nM; average of 3 runs. For orientation: SPR reads the build-up and loss of mass on a sensor chip optically.
The target is the same in assay [2]. Put plainly: SPR, Biacore T200, multi-cycle, Tbp-B at 6.17-500 nM; Run-3.
For assay [3] the target is unchanged. Briefly: SPR, Biacore T200, multi-cycle, Tbp-B at 6.17-500 nM; Run-2.
The target is the same in assay [4]. Briefly: SPR, Biacore T200, multi-cycle, Tbp-B at 6.17-500 nM; Run-1.

Several values for one entry are separate records, joined by “and”; a condition that tells them apart may be missing. Identical values can stand only once.

Results on one substance are retold here after patent publication US20260263594A1.

The term Kd denotes the free concentration of one partner at which half of the binding sites on the other are occupied at equilibrium, for simple one-to-one binding. What is called koff is a measure of how fast the partners let go of each other.

Sequence of UniProt P02787 (P02787 20-698 limits assumed, form in doubt): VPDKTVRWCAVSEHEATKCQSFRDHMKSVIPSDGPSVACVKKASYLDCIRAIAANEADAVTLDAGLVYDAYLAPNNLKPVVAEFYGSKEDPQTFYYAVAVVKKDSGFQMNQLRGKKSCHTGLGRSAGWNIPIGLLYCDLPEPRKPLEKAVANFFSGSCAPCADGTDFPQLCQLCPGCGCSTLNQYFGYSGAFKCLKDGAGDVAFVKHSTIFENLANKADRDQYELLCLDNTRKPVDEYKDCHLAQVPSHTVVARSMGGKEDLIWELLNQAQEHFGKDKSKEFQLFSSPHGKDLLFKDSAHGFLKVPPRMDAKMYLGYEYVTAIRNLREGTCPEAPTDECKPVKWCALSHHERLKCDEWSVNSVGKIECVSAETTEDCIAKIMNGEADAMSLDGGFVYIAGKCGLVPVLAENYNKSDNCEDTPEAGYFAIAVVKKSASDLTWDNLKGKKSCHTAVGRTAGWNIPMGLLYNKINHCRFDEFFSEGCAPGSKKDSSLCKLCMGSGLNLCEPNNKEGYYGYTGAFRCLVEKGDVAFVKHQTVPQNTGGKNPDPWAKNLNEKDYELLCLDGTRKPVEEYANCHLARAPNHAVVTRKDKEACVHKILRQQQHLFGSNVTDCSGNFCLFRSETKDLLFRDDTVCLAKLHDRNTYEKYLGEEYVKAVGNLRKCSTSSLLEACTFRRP

With “recombinant transferrin binding protein B (r-Tbp-B) from Neisseria meningitidis serogroup C / serotype 2a (strain FAM18) (receptor)”, the Kd is 7.92 nM and 18.6 nM and 19.5 nM in assay [1]; 8.1 nM and 19 nM and 22 nM in assay [2]; 8.1 nM and 21 nM and 19 nM in assay [3]; 7.55 nM and 16.3 nM and 18.3 nM in assay [4]. Moreover, the koff in assay [1] is 0.019 s⁻¹ and 0.009 s⁻¹; in assay [2], 0.02 s⁻¹ and 0.009 s⁻¹; in assay [3], 0.019 s⁻¹ and 0.009 s⁻¹; in assay [4], 0.0187 s⁻¹ and 0.0081 s⁻¹ and 0.0083 s⁻¹.
